Key:
FGFR3 = FGFR3 (UniProt P22607); assay: phosphorylation enrichment, bacterial display (enrichment ratio); higher = better substrate or ligand; peptides without Tyr show the background
Fyn = Fyn (UniProt P06241); assay: as above
c-Src = assay: as above
AncSZ = assay: as above
Hck = Hck (UniProt P08631); assay: as above
Fes = Fes (UniProt P07332); assay: as above
FGFR1 = FGFR1 (UniProt P11362); assay: as above
EPHB2 = EPHB2 (UniProt P29323); assay: as above
c-Abl (mouse) = assay: as above
Fer (mouse) = assay: as above
Jak2 = Jak2 (UniProt O60674); assay: as above
EPHB1 = EPHB1 (UniProt P54762); assay: as above
MERTK = MERTK (UniProt Q12866); assay: as above
SHP2-C SH2 = assay: SH2 binding enrichment of the phosphorylated peptide, bacterial display (enrichment ratio); higher = better substrate or ligand; peptides without Tyr show the background
c-Src SH2 = assay: as above
Grb2 SH2 = Grb2 SH2 (UniProt P62993); assay: as above
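For SH2 binding enrichment of the phosphorylated peptide, bacterial display in this document: peptide library displayed on the E. coli surface as eCPX fusions, selected cells deep-sequenced, score is each peptide's frequency after selection divided by its frequency in the input.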
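For phosphorylation enrichment, bacterial display in this document: 11-residue human phosphosite peptides and single-mutation variants displayed on the E. coli surface, counted by deep sequencing, each peptide's frequency after selection divided by its frequency in the unselected input library; frequency after pTyr selection over input frequency; kinase dosed for 20-30% of maximal phosphorylation in three min.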

EPHB2, sequence (P29323 whole entry, looked up): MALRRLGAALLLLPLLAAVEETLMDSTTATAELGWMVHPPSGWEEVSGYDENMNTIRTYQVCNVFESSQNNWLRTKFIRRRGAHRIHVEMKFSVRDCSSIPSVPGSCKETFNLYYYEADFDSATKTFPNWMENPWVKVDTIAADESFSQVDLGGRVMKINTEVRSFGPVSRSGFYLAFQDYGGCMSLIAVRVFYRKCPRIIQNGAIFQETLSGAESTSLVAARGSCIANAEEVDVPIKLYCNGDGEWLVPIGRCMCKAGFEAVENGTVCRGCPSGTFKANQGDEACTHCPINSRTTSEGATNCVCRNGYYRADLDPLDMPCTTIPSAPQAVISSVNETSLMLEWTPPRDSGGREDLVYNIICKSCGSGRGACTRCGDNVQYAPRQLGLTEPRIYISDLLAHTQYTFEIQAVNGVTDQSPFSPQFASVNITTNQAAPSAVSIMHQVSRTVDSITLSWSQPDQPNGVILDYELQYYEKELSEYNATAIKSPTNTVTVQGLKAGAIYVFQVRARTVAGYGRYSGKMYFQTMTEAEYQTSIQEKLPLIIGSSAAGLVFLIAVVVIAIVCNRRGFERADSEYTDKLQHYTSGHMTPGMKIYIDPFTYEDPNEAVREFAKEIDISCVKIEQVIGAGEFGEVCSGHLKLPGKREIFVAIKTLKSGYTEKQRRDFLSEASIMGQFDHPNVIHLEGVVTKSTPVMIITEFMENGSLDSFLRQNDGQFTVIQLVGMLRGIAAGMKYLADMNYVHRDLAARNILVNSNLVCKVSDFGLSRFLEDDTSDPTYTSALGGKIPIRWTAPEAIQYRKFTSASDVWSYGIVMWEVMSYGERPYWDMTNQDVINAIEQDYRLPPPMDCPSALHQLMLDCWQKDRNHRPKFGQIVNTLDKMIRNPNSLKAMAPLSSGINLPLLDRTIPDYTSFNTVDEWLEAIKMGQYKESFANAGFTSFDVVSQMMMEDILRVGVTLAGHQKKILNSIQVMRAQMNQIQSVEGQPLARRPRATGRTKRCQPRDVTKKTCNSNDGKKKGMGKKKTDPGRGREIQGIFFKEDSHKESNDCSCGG
Grb2 SH2, sequence (P62993 whole entry, looked up, the tested form may be a part): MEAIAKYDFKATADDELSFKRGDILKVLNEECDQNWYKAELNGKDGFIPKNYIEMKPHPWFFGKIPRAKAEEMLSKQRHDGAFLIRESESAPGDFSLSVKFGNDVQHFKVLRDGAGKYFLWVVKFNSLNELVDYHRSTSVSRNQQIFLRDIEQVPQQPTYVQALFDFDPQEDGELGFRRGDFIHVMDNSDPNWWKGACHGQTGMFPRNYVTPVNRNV
FGFR3, sequence (P22607 whole entry, looked up): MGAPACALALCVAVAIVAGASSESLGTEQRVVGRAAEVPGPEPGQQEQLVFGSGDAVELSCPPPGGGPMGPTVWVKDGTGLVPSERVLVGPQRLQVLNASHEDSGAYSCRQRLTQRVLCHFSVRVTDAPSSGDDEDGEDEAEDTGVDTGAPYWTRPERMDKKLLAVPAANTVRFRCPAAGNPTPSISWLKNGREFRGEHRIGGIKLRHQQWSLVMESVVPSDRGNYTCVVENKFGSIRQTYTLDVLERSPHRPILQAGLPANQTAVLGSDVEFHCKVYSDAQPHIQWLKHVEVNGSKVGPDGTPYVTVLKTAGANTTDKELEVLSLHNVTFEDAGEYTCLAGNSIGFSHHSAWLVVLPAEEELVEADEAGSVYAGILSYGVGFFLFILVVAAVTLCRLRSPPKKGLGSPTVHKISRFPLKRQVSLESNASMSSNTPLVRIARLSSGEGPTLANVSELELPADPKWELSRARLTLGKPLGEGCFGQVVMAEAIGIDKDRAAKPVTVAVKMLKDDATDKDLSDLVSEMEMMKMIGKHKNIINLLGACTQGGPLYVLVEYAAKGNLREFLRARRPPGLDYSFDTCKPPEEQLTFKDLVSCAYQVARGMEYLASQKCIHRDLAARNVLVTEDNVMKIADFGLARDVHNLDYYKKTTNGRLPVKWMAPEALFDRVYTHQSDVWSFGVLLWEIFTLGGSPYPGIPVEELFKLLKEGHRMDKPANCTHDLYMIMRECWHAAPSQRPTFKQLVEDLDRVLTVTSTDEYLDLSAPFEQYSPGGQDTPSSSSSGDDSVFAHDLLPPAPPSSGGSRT
Jak2, sequence (O60674 whole entry, looked up): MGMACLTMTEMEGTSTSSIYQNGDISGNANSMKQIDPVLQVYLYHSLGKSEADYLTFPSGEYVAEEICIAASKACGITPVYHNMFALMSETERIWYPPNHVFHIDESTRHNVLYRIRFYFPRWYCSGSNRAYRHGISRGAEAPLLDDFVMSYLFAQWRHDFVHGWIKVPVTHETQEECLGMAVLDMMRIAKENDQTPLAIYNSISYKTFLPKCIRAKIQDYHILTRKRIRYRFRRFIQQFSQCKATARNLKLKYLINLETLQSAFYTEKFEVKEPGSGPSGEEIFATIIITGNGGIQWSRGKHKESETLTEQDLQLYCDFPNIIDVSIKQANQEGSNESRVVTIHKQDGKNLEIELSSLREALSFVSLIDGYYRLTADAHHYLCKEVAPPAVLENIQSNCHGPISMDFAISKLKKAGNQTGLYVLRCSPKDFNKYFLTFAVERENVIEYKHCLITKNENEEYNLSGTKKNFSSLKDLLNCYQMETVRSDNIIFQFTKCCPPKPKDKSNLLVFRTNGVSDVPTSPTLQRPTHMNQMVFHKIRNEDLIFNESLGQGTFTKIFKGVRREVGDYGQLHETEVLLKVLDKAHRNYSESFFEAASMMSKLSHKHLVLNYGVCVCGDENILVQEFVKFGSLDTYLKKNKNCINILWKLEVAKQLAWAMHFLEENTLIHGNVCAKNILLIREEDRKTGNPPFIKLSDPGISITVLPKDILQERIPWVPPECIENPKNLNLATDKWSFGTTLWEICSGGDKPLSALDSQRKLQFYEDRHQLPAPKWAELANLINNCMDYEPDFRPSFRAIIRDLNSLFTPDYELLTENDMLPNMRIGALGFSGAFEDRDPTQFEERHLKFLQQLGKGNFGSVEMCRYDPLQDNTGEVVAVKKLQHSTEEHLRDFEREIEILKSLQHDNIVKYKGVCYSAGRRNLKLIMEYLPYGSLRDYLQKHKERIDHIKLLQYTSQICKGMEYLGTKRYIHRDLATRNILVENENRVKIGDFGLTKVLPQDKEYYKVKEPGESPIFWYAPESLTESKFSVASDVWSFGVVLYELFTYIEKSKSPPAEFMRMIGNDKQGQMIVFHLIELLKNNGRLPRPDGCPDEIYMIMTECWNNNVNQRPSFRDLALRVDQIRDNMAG
MERTK, sequence (Q12866 whole entry, looked up): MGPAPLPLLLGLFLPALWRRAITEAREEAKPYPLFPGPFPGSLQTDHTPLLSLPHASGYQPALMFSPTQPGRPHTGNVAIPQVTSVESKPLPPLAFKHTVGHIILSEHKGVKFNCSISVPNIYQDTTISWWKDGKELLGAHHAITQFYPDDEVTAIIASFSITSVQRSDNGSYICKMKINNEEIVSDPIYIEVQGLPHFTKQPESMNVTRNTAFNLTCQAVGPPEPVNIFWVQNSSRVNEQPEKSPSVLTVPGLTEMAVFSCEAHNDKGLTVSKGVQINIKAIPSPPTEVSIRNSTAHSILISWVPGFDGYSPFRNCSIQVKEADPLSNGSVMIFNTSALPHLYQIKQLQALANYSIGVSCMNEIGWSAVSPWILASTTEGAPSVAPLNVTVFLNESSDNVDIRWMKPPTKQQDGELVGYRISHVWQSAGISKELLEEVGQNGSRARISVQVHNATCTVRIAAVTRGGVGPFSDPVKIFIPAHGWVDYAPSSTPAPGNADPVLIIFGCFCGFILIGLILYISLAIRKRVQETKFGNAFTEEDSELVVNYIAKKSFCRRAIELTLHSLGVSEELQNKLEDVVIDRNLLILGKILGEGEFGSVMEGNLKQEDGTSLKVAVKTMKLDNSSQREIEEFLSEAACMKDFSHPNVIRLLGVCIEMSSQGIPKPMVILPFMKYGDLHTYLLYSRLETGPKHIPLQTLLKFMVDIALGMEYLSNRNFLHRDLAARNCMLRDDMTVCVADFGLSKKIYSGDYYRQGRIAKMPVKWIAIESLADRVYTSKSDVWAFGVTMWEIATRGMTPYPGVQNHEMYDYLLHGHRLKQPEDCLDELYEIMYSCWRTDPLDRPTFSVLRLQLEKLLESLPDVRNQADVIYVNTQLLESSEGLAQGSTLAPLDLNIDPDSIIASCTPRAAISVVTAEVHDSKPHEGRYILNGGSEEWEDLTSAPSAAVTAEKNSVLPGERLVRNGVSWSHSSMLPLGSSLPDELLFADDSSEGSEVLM
Hck, sequence (P08631 whole entry, looked up): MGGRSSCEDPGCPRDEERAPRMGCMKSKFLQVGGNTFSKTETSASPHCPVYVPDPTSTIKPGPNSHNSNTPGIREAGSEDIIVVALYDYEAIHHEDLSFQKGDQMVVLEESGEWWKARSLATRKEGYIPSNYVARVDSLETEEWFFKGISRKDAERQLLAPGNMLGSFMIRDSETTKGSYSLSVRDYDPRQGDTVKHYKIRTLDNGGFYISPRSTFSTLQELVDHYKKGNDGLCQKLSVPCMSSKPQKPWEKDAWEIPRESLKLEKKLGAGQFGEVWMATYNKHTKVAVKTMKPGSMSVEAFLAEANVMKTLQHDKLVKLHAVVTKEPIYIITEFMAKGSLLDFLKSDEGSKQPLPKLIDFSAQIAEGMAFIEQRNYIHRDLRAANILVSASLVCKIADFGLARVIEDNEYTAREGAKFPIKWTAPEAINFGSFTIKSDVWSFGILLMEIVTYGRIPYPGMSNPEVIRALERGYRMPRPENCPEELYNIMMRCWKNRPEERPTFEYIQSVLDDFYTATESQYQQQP

| Sequence | phosphorylation enrichment (FGFR3) | phosphorylation enrichment (Fyn) | phosphorylation enrichment (c-Src) | phosphorylation enrichment (AncSZ) | phosphorylation enrichment (Hck) | phosphorylation enrichment (Fes) | phosphorylation enrichment (FGFR1) | phosphorylation enrichment (EPHB2) | phosphorylation enrichment (c-Abl (mouse)) | phosphorylation enrichment (Fer (mouse)) | phosphorylation enrichment (Jak2) | phosphorylation enrichment (EPHB1) | phosphorylation enrichment (MERTK) | SH2 binding enrichment (SHP2-C SH2) | SH2 binding enrichment (c-Src SH2) | SH2 binding enrichment (Grb2 SH2) |
| --- | --- | --- | --- | --- | --- | --- | --- | --- | --- | --- | --- | --- | --- | --- | --- | --- |
| IQKWEYVPLGP [FAH_Y244] | 0.822 | 0.514 | 0.453 | 1.02 | 0.48 | 1.01 | 1.11 | 0.521 | 0.791 | 0.454 | 1.43 | 0.612 | 0.597 | 0.558 | 0.656 | 0.834 |
| NFYEYYVDDPP [GCHFR_Y48] | 4.76 | 5.21 | 4.3 | 2.53 | 2.65 | 1.29 | 5.94 | 6.26 | 0.877 | 6.58 | 1.23 | 5.35 | 6.46 | 0.505 | 0.679 | 0.709 |
| YGSGNYNVFGN [HNRNPA2B1_Y300_D302V] | 0.63 | 0.76 | 0.653 | 0.737 | 0.882 | 0.828 | 0.539 | 0.797 | 0.49 | 0.561 | 0.683 | 0.666 | 0.639 | 0.673 | 0.682 | 0.813 |
| NLVSEYQQFQD [TUBB3_Y422_D417N_YF] | 0.745 | 0.574 | 0.698 | 1.17 | 0.535 | 1.14 | 0.545 | 0.624 | 0.88 | 0.556 | 1.08 | 0.739 | 0.429 | 0.673 | 0.64 | 0.74 |
| VIKDKYPKAHF [APTX_Y209_R213H_YF] | 0.387 | 0.389 | 0.369 | 0.523 | 0.284 | 0.493 | 0.38 | 0.3 | 0.514 | 0.355 | 0.534 | 0.285 | 0.356 | 1.01 | 0.766 | 0.999 |
| IGEGTYGVVYK [CDK2_Y15] | 0.67 | 10.6 | 5.96 | 0.907 | 7.9 | 0.896 | 0.551 | 7.28 | 0.63 | 1.73 | 0.756 | 2.67 | 2.01 | 0.535 | 0.507 | 0.73 |
| RRVLVYRGRGA [QDPR_Y16_G17R] | 0.779 | 0.712 | 0.754 | 0.963 | 0.782 | 0.991 | 0.758 | 0.714 | 0.829 | 0.618 | 0.692 | 0.818 | 0.708 | 0.5 | 0.425 | 0.71 |
| GVRFTYTIDGS [DCX_Y105_I104T_YF] | 0.729 | 0.426 | 0.435 | 1.26 | 0.496 | 1.33 | 0.601 | 0.67 | 0.715 | 0.384 | 1.24 | 0.458 | 0.423 | 0.545 | 0.475 | 0.87 |
| IHKEFYDGLFP [BCR_Y561] | 0.853 | 0.57 | 0.878 | 1.08 | 1.17 | 1.27 | 0.606 | 0.743 | 0.864 | 0.699 | 1.06 | 0.802 | 0.823 | 0.77 | 0.913 | 0.946 |
| AFPVSYSSSSA [RET_Y687_G691S] | 0.685 | 0.461 | 0.415 | 0.598 | 0.463 | 0.663 | 0.38 | 0.425 | 0.455 | 0.425 | 0.527 | 0.511 | 0.536 | 0.586 | 0.524 | 0.8 |
| EKKKYYDAKIE [CASP5_Y104_T106A] | 0.781 | 0.588 | 0.64 | 0.777 | 0.449 | 0.978 | 0.526 | 0.326 | 0.609 | 0.475 | 0.912 | 0.679 | 0.473 | 0.668 | 0.522 | 1.07 |
| YRQLQYCPSVE [CTNND2_Y508] | 0.928 | 0.538 | 0.476 | 1.11 | 0.606 | 1.31 | 0.545 | 0.591 | 0.861 | 0.637 | 0.857 | 0.661 | 0.483 | 0.488 | 0.472 | 0.678 |
| FGPPQYNIQFS [ERBB2IP_Y977_YF] | 0.508 | 0.364 | 0.395 | 0.768 | 0.405 | 0.779 | 0.447 | 0.44 | 0.641 | 0.342 | 0.741 | 0.524 | 0.311 | 0.806 | 0.592 | 0.907 |
| LLREWYLPDPF [SIX3_Y225_Q227P_YF] | 1.36 | 1.11 | 0.747 | 2.26 | 0.791 | 2.2 | 1.25 | 0.711 | 1.13 | 0.871 | 1.4 | 1.22 | 0.583 | 1.06 | 0.863 | 1.3 |
| NHFKRYNLCAE [PTEN_Y68_I67R_YF] | 0.471 | 0.459 | 0.538 | 0.638 | 0.449 | 0.668 | 0.456 | 0.565 | 0.678 | 0.419 | 0.59 | 0.384 | 0.485 | 0.618 | 0.644 | 0.949 |
| VFAPDYIAGVS [NOB1_Y366] | 0.807 | 0.585 | 0.55 | 1.05 | 0.651 | 1.38 | 0.537 | 0.646 | 0.844 | 0.647 | 0.934 | 0.657 | 0.547 | 0.755 | 0.544 | 0.927 |
